Data: paper PMC10397247
Blank lines part the entries; values can stand above or below the binder they belong to.

Legend:
P9bHq = target: T1, P9bHq; experiment: two-hybrid library CCNG1;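 note: natural log of median RNA to DNA barcode read ratio; higher means stronger binding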
T1 chain: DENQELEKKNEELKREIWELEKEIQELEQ

P7bHq = target: T2, P7bHq; experiment: two-hybrid library CCNG1;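 note: natural log of median RNA to DNA barcode read ratio; higher means stronger binding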
T2 chain: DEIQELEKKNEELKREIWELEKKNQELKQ

P8bHq = target: T3, P8bHq; experiment: two-hybrid library CCNG1;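 note: natural log of median RNA to DNA barcode read ratio; higher means stronger binding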
T3 chain: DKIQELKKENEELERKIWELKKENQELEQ

O5-AA = target: T4, O5-AA; experiment: two-hybrid library CCmax; conditions: mean of both orientations;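 note: natural log of median RNA to DNA barcode read ratio; higher means stronger binding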
T4 chain: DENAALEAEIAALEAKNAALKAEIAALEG

O6-AA = target: T5, O6-AA; experiment: two-hybrid library CCmax; conditions: mean of both orientations;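 note: natural log of median RNA to DNA barcode read ratio; higher means stronger binding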
T5 chain: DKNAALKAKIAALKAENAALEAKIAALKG

P9-AA = target: T6, P9-AA; experiment: two-hybrid library CCmax; conditions: mean of both orientations;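 note: natural log of median RNA to DNA barcode read ratio; higher means stronger binding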
T6 chain: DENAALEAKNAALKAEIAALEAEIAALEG

O4-AA = target: T7, O4-AA; experiment: two-hybrid library CCmax
T7 chain: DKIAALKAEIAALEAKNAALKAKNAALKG

O7-AA = target: T8, O7-AA; experiment: two-hybrid library CCmax; conditions: mean of both orientations
T8 chain: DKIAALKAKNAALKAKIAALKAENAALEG

P10-AA = target: T9, P10-AA; experiment: two-hybrid library CCmax; conditions: mean of both orientations
T9 chain: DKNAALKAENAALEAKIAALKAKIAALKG

O8-AA = target: T10, O8-AA; experiment: two-hybrid library CCmax; conditions: mean of both orientations
T10 chain: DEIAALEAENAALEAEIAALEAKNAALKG

4H346-bN = target: T11, 4H346-bN; experiment: two-hybrid library CCNG1
T11 chain: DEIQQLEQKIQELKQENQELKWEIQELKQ

4H3010-bN = target: T12, 4H3010-bN; experiment: two-hybrid library CCNG1
T12 chain: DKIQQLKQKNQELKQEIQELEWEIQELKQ

4H855-bN = target: T13, 4H855-bN; experiment: two-hybrid library CCNG1
T13 chain: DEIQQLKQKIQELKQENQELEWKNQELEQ

4H918-bN = target: T14, 4H918-bN; experiment: two-hybrid library CCNG1
T14 chain: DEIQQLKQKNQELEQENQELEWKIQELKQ

4H754-bN = target: T15, 4H754-bN; experiment: two-hybrid library CCNG1
T15 chain: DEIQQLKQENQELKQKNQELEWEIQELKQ

4H457-bN = target: T16, 4H457-bN; experiment: two-hybrid library CCNG1
T16 chain: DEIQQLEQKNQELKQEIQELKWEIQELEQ

4H575-bN = target: T17, 4H575-bN; experiment: two-hybrid library CCNG1
T17 chain: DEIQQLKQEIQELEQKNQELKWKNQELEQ

4H3926-bN = target: T18, 4H3926-bN; experiment: two-hybrid library CCNG1
T18 chain: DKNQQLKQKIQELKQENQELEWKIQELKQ

4H4073-bN = target: T19, 4H4073-bN; experiment: two-hybrid library CCNG1
T19 chain: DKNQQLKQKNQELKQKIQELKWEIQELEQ

4H3427-bN = target: T20, 4H3427-bN; experiment: two-hybrid library CCNG1
T20 chain: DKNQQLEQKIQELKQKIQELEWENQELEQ

4H683-bN = target: T21, 4H683-bN; experiment: two-hybrid library CCNG1
T21 chain: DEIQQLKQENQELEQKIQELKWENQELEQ

4H797-bN = target: T22, 4H797-bN; experiment: two-hybrid library CCNG1
T22 chain: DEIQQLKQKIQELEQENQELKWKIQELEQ

4H968-bN = target: T23, 4H968-bN; experiment: two-hybrid library CCNG1
T23 chain: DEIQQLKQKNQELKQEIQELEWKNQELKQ

4H953-bN = target: T24, 4H953-bN; experiment: two-hybrid library CCNG1
T24 chain: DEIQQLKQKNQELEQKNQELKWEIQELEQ

4H2702-bN = target: T25, 4H2702-bN; experiment: two-hybrid library CCNG1
T25 chain: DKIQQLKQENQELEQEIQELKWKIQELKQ

4H780-bN = target: T26, 4H780-bN; experiment: two-hybrid library CCNG1
T26 chain: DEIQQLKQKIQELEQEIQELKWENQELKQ

4H3112-bN = target: T27, 4H3112-bN; experiment: two-hybrid library CCNG1
T27 chain: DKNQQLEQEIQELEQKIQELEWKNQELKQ

4H607-bN = target: T28, 4H607-bN; experiment: two-hybrid library CCNG1
T28 chain: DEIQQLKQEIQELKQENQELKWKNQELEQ

4H4001-bN = target: T29, 4H4001-bN; experiment: two-hybrid library CCNG1
T29 chain: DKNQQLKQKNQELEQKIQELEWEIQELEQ

4H3782-bN = target: T30, 4H3782-bN; experiment: two-hybrid library CCNG1
T30 chain: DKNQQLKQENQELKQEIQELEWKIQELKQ

4H568-bN = target: T31, 4H568-bN; experiment: two-hybrid library CCNG1
T31 chain: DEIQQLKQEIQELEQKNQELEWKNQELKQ

4H370-bN = target: T32, 4H370-bN; experiment: two-hybrid library CCNG1
T32 chain: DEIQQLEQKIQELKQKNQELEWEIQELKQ

4H2697-bN = target: T33, 4H2697-bN; experiment: two-hybrid library CCNG1
T33 chain: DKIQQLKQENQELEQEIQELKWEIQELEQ

4H3189-bN = target: T34, 4H3189-bN; experiment: two-hybrid library CCNG1
T34 chain: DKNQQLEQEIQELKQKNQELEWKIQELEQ

4H331-bN = target: T35, 4H331-bN; experiment: two-hybrid library CCNG1
T35 chain: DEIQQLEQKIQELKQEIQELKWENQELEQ

4H3606-bN = target: T36, 4H3606-bN; experiment: two-hybrid library CCNG1
T36 chain: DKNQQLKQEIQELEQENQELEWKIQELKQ

4H462-bN = target: T37, 4H462-bN; experiment: two-hybrid library CCNG1
T37 chain: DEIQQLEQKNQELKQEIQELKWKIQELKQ

4H883-bN = target: T38, 4H883-bN; experiment: two-hybrid library CCNG1
T38 chain: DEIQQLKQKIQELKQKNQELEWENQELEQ

4H72-bN = target: T39, 4H72-bN; experiment: two-hybrid library CCNG1
T39 chain: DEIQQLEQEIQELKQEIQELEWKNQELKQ

4H3843-bN = target: T40, 4H3843-bN; experiment: two-hybrid library CCNG1
T40 chain: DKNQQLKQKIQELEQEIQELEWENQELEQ

4H687-bN = target: T41, 4H687-bN; experiment: two-hybrid library CCNG1
T41 chain: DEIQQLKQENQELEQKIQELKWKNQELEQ

4H967-bN = target: T42, 4H967-bN; experiment: two-hybrid library CCNG1
T42 chain: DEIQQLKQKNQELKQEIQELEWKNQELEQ

Binder: DKIAALKAEIAALEAKNAALKAKNAALKG [O4-AA]
interaction score (O5-AA): -0.641 | interaction score (O6-AA): -0.0762 | interaction score (P9-AA): -1.16 | interaction score (O4-AA): -1.05 | interaction score (O7-AA): -1.28 | interaction score (P10-AA): -0.869 | interaction score (O8-AA): -0.637

Binder: DKIQQLKQENQELEQEIQELKWEIQELEQ [4H2697-bN]
interaction score (4H607-bN): -1.63 | interaction score (4H4001-bN): -0.819 | interaction score (4H3782-bN): -1.03 | interaction score (4H918-bN): -1.97 | interaction score (4H568-bN): -1.07 | interaction score (4H370-bN): -0.695 | interaction score (4H2697-bN): -0.736 | interaction score (4H3189-bN): -1.43 | interaction score (4H331-bN): -0.941 | interaction score (4H3606-bN): -0.924 | interaction score (4H462-bN): 1.31 | interaction score (4H883-bN): -0.654 | interaction score (4H797-bN): -0.83 | interaction score (4H953-bN): -0.808 | interaction score (4H72-bN): -1.14 | interaction score (4H3843-bN): -0.916 | interaction score (4H687-bN): -1.12 | interaction score (4H967-bN): -1.15

The remaining lines, values ahead:

interaction score (P9bHq): 0.211 | interaction score (P7bHq): -1.98 | interaction score (P8bHq): 2.08
Binder: DEIQELEKKNEELKREIWELEKKNQELKQ [P7bHq]

interaction score (4H346-bN): -0.668 | interaction score (4H3010-bN): 2.05 | interaction score (4H855-bN): -1.49 | interaction score (4H918-bN): -0.128 | interaction score (4H754-bN): -1.18 | interaction score (4H457-bN): 1.25 | interaction score (4H575-bN): -0.212 | interaction score (4H3926-bN): 0.223 | interaction score (4H4073-bN): 2.14 | interaction score (4H3427-bN): -0.588 | interaction score (4H683-bN): 0.0387 | interaction score (4H797-bN): 0.189 | interaction score (4H968-bN): 1.31 | interaction score (4H953-bN): -0.0124 | interaction score (4H2702-bN): 1.44 | interaction score (4H780-bN): -0.44 | interaction score (4H3112-bN): -0.298
Binder: DKIQQLKQENQELEQEIQELKWKIQELKQ [4H2702-bN]
